The target of this data set is T1, cardiotoxin 3 (CTX3) (Naja naja atra (Taiwan cobra), UniProt P60301 22-81).
T1 sequence: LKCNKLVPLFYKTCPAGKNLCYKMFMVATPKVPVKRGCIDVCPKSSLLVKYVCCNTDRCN
Kind of data set: fluorescence quenching titration; 20 nM aptamer; >80% quenching, saturated at 400 nM CTX3; 10 mM HEPES pH 8.0, 30 C, 5 min incubation, no added salt stated; 20 nM aptamer or 10 nM MB. The note with it: protein: native; label: 5'-FAM; 3'-DABCYL.

B1: DNA aptamer against CTX3 (ssDNA)
DNA: GCGAGGTGTTCGAGAGTTAGGGGCGACATGACCAAACGTT
Regarding B1, the binding result is recorded as “binds”.
